Source: the supplement of paper PMC6755084

B1: F1*; the commonest letter at each place (parent)
chain: GAGACCGCAACTGAAAAGTTGTTATCACTTGTCGTAAGACACTTTGGATGGGTTGAAGTTCTGCACGTAGAAGCAAAAGGC

Variants of: B1
Experiment: fraction ligated after 30 min (ligated reads / total reads); higher = more ligase activity
Settings: with F1*sub RNA substrate (template-directed ligation), 42 °C
Method: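 Chip-synthesised pool of F1* ligase ribozyme variants (all single and double substitutions, single, double and triple deletions in the catalytic core and GAA bulge, plus designed variants) was transcribed with T7 and reacted as a pool with excess substrate F1*sub for 30 min at 42 C in 50 mM EPPS pH 8.5, 25 mM MgCl2. Ligated and unligated bands were separated by PAGE, barcoded by RT and deep sequenced; fraction ligated = ligated reads / total reads per variant, relative activity = FL / FL of wild type (0.826). Sequences are the DNA template of the ribozyme.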

Row | Variant | fraction ligated
1 | T25G G34A | 0.77
2 | A24C C42A | 0.779
3 | T35C C42T | 0.856
4 | T35C C42G | 0.851
5 | A41T G50A | 0.342
6 | C28A C42T | 0.823
7 | A24C C26G | 0.419
8 | A48T A57T | 0.546
9 | A41G T43G | 0.807
10 | C28T G55A | 0.801
11 | A39C T49A | 0.706
12 | T49G A57C | 0.523
13 | A36T A37G | 0.842
14 | A37C T45C | 0.778
15 | A48C T49A | 0.555
16 | G34A A56C | 0.804
17 | A36C A41G | 0.741
18 | T25A T32C | 0.145
19 | A39T T44G | 0.827
20 | T45A G50T | 0.0542
21 | T45A G50A | 0.0303
22 | C42T T43C | 0.828
23 | C26G G38C | 0.00552
24 | T25G G50T | 0.436

Row | Variant | fraction ligated
25 | T35G A56G | 0.791
26 | A27G G50T | 0.596
27 | C28T A36C | 0.801
28 | A36T C42G | 0.835
29 | A36T C42T | 0.856
30 | A39C A56C | 0.746
31 | A36G | 0.862
32 | T30A G47C | 0.128
33 | A27T A57C | 0.775
34 | C42A T44C | 0.834
35 | A41C A56G | 0.561
36 | A39G T45A | 0.784
37 | A24T T45A | 0.0698
38 | T25G T32G | 0.293
39 | T23C T44G | 0.779
40 | T23C T44A | 0.817
41 | A24G T35A | 0.786
42 | T29G G47T | 0.738
43 | G31A C40A | 0.839
44 | C42G | 0.854
45 | G47T A57T | 0.0782
46 | T25G T49C | 0.527
47 | T25G T49G | 0.779
48 | T23G T32C | 0.75

Row | Variant | fraction ligated
49 | T32G T45G | 0.0918
50 | T25C T32G | 0.707
51 | T23G A57G | 0.819
52 | G46T G50C | 0.0286
53 | G31C A57C | 0.788
54 | G31A T44G | 0.819
55 | T49A A56C | 0.102
56 | T25G C26T | 0.191
57 | G31C A48T | 0.0135
58 | G31A T43C | 0.797
59 | T29C T35G | 0.831
60 | G38A G50C | 0.194
61 | T35A G50A | 0.638
62 | A27T A48C | 0.729
63 | A36C A39G | 0.826
64 | C26A | 0.788
65 | G31A G46C | 0.524
66 | T25G T44C | 0.741
67 | T25A A27G | 0.372
68 | A36C T43G | 0.797
69 | C42A A56T | 0.798
70 | T35C G50C | 0.437
71 | T30G A39T | 0.779
72 | T25C G46T | 0.396

Row | Variant | fraction ligated
73 | G47A G55T | 0.221
74 | A36T G46C | 0.787
75 | A39G G50A | 0.671
76 | T35A A41G | 0.811
77 | T35A A41C | 0.792
78 | C40T G55C | 0.782
79 | G31A T49G | 0.229
80 | A39G G46T | 0.783
81 | T44C A48T | 0.781
82 | T25A A39C | 0.223
83 | T32A G38T | 0.825
84 | A36G A48G | 0.798
85 | A27T G50T | 0.616
86 | G55C A56T | 0.737
87 | G55C A56C A57G | 0.0246
88 | G34T T49C | 0.633
89 | C40T T44G | 0.825
90 | T32C A57T | 0.775
91 | G46C A57C | 0.778
92 | G46C G50T | 0.165
93 | A36T G38T | 0.834
94 | A36T T44A | 0.844
95 | C26T G34T | 0.812
96 | T25C G31A | 0.742

Row | Variant | fraction ligated
97 | T44A G47C | 0.117
98 | G38C G46A | 0.791
99 | T25A T29C | 0.187
100 | C28G A39C | 0.759
101 | G31C A39C | 0.779
102 | G31C A39G | 0.777
103 | G55C A56G A57C | 0.104
104 | G31T T35G | 0.803
105 | T30C G46T | 0.78
106 | T30C G46A | 0.807
107 | C28G G31T | 0.833
108 | A27C C40A | 0.817
109 | T23G A56C | 0.794
110 | A36C C40G | 0.818
111 | T35A C42G | 0.847
112 | T25A T43A | 0.463
113 | T32C A36T | 0.803
114 | A27C T49G | 0.733
115 | A27C T49C | 0.519
116 | A37T G46T | 0.784
117 | T29C A36G | 0.841
118 | C26G G34C | 0.371
119 | T25C G50T | 0.639
120 | T35A C40A | 0.811

Row | Variant | fraction ligated
121 | T25G A27C | 0.705
122 | T45C A48C | 0.112
123 | T45C A48G | 0.0929
124 | C28A T35C | 0.807
125 | T45A A56C | 0.782
126 | T45C G55A | 0.521
127 | T30A | 0.855
128 | C33T T49G | 0.801
129 | A24C T44C | 0.563
130 | G31C A56C | 0.155
131 | C33A G34T | 0.843
132 | A27T T30A | 0.775
133 | A27T T35A | 0.804
134 | A24G C42G | 0.795
135 | T32C A41T | 0.776
136 | C26G T43C | 0.689
137 | T35G G47C | 0.222
138 | C33A A39T | 0.852
139 | T35C A48G | 0.805
140 | T25G G31A | 0.0861
141 | G38C A48G | 0.53
142 | A27C G47C | 0.158
143 | A39C C40T | 0.784
144 | G34A A48T | 0.798

Row | Variant | fraction ligated
145 | A41T G47T | 0.418
146 | A24G T45G | 0.0477
147 | A37C T44C | 0.843
148 | T30C A39T | 0.764
149 | A24C T29C | 0.28
150 | T32A A48T | 0.0494
151 | C26A G38C | 0.313
152 | A24T T32C | 0.243
153 | A24T T32A | 0.153
154 | G34T C40T | 0.809
155 | A27G T35G | 0.839
156 | A27T A56G | 0.791
157 | T32C A56C | 0.727
158 | A27C A41G | 0.781
159 | A24C C40A | 0.165
160 | A24C C40T | 0.707
161 | C28A A48C | 0.477
162 | G31C T44C | 0.792
163 | C28A | 0.809
164 | A36G A37C | 0.835
165 | G34A T49A | 0.786
166 | C33T A37T | 0.854
167 | G38A G46A | 0.805
